Data set [1] addresses T1, THAP zinc finger of hTHAP1 K24A (Homo sapiens, UniProt Q9NVV9 1-81, K24A).
T1 sequence: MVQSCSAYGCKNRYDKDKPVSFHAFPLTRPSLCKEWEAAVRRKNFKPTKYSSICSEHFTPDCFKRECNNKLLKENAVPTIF
The data set can be described thus: fluorescence anisotropy.

Data set [2] concerns the target T2, THAP zinc finger of hTHAP1 (C62S/C67S) (Homo sapiens, UniProt Q9NVV9 1-81, C62S;C67S).
T2 sequence: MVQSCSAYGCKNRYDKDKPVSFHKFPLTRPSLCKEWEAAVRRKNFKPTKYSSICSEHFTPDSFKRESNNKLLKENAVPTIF
The data set can be described thus: fluorescence anisotropy. (In general: Fluorescence polarisation rises when a labelled molecule tumbles more slowly, as on binding a larger partner.)

B1: non-specific 16-bp DNA (dsDNA)
DNA 1: CGATTTGAATTTTAAC
DNA 2: GTTAAAATTCAAATCG
In the case of B1, in data set [1], the binding result is “binds”.

B2: rrm1 16-bp (THABS) (dsDNA)
DNA 1: GCTTGTGTGGGCAGCG
DNA 2: CGCTGCCCACACAAGC
With B2, the Kd – broadly, the free concentration of one partner at which half of the binding sites on the other are occupied at equilibrium, for simple one-to-one binding – in data set [2] is 480 ± 60 nM.

Source of the values: article PMC2879526.
